In US20240368282A1 (BIOSCEPTRE AUST, published 2024):

Assays:
CD70 = target: T1, CD70 (UniProt P32970 1-193, limits assumed); assay: flow cytometry, anti-HIS antibody
T1 construct: whole, on cells
T1 sequence (looked up): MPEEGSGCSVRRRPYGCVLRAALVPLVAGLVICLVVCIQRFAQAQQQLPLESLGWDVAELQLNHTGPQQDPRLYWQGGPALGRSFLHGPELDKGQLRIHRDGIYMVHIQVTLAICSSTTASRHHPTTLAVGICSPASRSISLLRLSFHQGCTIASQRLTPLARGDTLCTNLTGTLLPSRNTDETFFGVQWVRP

CD123 = target: T2, CD123 (UniProt P26951 19-378, limits assumed); assay: flow cytometry, anti-HIS antibody
T2 construct: whole, on cells; also called IL3RA

CD22 [1] = target: T3, CD22 (UniProt P20273 20-847, limits assumed); assay: flow cytometry (data not shown)
T3 construct: whole, on cells

CD37 = target: T4, CD37 (UniProt P11049 1-281, limits assumed); assay: flow cytometry, anti-HIS antibody
T4 construct: whole, on cells
T4 sequence (looked up): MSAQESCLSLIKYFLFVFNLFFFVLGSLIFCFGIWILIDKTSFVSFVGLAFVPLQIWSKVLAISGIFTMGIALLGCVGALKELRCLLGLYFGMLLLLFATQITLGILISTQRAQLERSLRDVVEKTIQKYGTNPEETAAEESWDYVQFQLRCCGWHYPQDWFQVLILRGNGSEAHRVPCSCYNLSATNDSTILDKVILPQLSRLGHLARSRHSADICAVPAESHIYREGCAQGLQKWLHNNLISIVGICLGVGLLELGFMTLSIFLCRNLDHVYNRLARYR

CD16 = target: T5, CD16 (human, UniProt P08637 17-254); assay: binding to NK cells (method not told)
T5 construct: whole, on cells; CD16 is the antigen of the 3G8 arm of these molecules; also called FcγRIII

CD33 = target: T6, CD33 (UniProt P20138 18-364, limits assumed); assay: flow cytometry, anti-HIS antibody
T6 construct: whole, on cells; Endogenous on human cell lines; also called Siglec-3

ROR1 = target: T7, ROR1 (UniProt Q01973 30-937, limits assumed); assay: flow cytometry, anti-HIS antibody
T7 construct: whole, on cells

EGFR = target: T8, EGFR (UniProt P00533 25-1210); assay: flow cytometry, anti-HIS antibody
T8 construct: whole, on cells

CD22 [2] = target: T3, CD22; assay: flow cytometry, anti-HIS antibody
CD79B = target: T9, CD79B (UniProt P40259 29-229, limits assumed); assay: flow cytometry, anti-HIS antibody
T9 construct: whole, on cells
T9 sequence (looked up): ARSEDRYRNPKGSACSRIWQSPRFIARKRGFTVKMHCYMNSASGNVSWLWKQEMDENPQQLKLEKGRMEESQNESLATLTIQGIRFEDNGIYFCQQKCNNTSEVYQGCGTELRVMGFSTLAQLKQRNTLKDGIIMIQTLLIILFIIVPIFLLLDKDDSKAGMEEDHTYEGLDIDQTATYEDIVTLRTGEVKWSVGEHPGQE

CD135 = target: T10, CD135 (UniProt P36888 27-993, limits assumed); assay: flow cytometry, anti-HIS antibody
T10 construct: whole, on cells; also called FLT-3

BCMA = target: T11, BCMA (UniProt Q02223 1-184, limits assumed); assay: flow cytometry, anti-HIS antibody
T11 construct: whole, on cells
T11 sequence (looked up): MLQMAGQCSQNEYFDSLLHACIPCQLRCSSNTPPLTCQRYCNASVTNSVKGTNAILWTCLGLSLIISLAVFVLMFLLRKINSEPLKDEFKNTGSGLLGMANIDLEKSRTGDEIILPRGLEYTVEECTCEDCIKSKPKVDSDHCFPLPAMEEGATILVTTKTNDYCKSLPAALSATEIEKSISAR

T5 sequence (P08637 17-254): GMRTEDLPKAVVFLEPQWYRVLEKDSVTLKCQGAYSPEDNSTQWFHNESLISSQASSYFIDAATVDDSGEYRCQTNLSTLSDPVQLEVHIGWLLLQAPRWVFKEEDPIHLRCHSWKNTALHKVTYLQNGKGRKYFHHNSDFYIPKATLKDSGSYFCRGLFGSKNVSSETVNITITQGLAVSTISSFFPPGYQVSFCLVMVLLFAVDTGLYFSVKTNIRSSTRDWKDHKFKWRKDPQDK
T2 sequence (P26951 19-378 limits assumed): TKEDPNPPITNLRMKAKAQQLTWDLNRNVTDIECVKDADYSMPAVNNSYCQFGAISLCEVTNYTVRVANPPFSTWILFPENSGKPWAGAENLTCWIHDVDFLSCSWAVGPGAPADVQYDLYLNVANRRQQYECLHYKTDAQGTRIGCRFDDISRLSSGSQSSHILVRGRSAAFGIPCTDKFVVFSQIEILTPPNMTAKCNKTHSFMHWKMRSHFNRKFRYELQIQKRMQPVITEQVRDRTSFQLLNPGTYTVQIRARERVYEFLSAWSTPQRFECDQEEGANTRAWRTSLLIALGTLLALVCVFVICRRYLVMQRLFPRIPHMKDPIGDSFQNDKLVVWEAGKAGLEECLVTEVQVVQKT
T6 sequence (P20138 18-364 limits assumed): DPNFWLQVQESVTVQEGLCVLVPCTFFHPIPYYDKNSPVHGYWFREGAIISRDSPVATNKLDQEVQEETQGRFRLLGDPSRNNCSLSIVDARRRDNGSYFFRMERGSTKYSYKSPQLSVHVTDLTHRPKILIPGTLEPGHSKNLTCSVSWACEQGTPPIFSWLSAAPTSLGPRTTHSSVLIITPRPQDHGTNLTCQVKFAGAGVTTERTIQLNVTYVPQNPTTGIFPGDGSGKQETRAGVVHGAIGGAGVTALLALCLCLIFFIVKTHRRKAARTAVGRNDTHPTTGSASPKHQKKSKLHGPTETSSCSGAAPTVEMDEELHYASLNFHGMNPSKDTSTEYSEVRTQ

B1: CD70 bridging molecule derived from cusatuzumab (Fab, V domains shown)
VH: EVQLVESGGGLVQPGGSLRLSCAASGFTFSVYYMNWVRQAPGKGLEWVSDINNEGGTTYYADSVKGRFTISRDNSKNSLYLQMNSLRAEDTAVYYCARDAGYSNHVPIFDSWGQGTLVTVSS
VL: SQAVVTQEPSLTVSPGGTVTLTCGLKSGSVTSDNFPTWYQQTPGQAPRLLIYNTNTRHSGVPDRFSGSILGNKAALTITGAQADDEAEYFCALFISNPSVEFGGGTQLTVLK
notes: Fab with E200 at the N-terminus of the light chain, 6xHis on both chains; also called B028; CD70, Cusatuzumab, B028-1_LC / B028-2_HC
CD70
  binding result: binds

B2: CD123 bridging molecule derived from clone 32716 (Fab, V domains shown)
VH: QIQLVQSGPELKKPGETVKISCKASGYIFTNYGMNWVKQAPGKSFKWMGWINTYTGESTYSADFKGRFAFSLETSASTAYLHINDLKNEDTATYFCARSGGYDPMDYWGQGTSVTVSS
VL: DIVLTQSPASLAVSLGQRATISCRASESVDNYGNTFMHWYQQKPGQPPKLLIYRASNLESGIPARFSGSGSRTDFTLTINPVEADDVATYYCQQSNEDPPTFGAGTKLELKR
notes: Fab with E200 at the N-terminus of the light chain, 6xHis on both chains; also called B042; CD123, clone 32716, B042-1_LC / B042-2_HC
CD123
  binding result: binds

B3: CD22 bridging molecule derived from inotuzumab (Fab, V domains shown)
VH: EVQLVQSGAEVKKPGASVKVSCKASGYRFTNYWIHWVRQAPGQGLEWIGGINPGNNYATYRRKFQGRVTMTADTSTSTVYMELSSLRSEDTAVYYCTREGYGNYGAWFAYWGQGTLVTVSS
VL: DVQVTQSPSSLSASVGDRVTITCRSSQSLANSYGNTFLSWYLHKPGKAPQLLIYGISNRFSGVPDRFSGSGSGTDFTLTISSLQPEDFATYYCLQGTHQPYTFGQGTKVEIKR
notes: also called B024; CD22, Inotuzumab, B024-1_LC / B024-2_HC
CD22 [1]
  binding result: binds

B4: CD37 bridging molecule derived from otlertuzumab (Fab, V domains shown)
VH: EVQLVQSGAEVKKPGESLKISCKGSGYSFTGYNMNWVRQMPGKGLEWMGNIDPYYGGTTYNRKFKGQVTISADKSISTAYLQWSSLKASDTAMYYCARSVGPFDSWGQGTLVTVSS
VL: EIVLTQSPATLSLSPGERATLSCRASENVYSYLAWYQQKPGQAPRLLIYFAKTLAEGIPARFSGSGSGTDFTLTISSLEPEDFAVYYCQHHSDNPWTFGQGTKVEIKR
notes: Fab with E200 at the N-terminus of the light chain, 6xHis on both chains; also called B026; CD37, Otlertuzumab, B026-1_LC / B026-2_HC
CD37
  binding result: binds

B5: OR_BiKE1 OR105 (nfP2X7 x CD16) (bispecific antibody)
chain: DIQMTQSPSSLSASVGDRVTITCRASQYIYDYLNWYQQKPGKAPKLLIYAASYLQSGVPSRFSGSGSGTDFTLTISSLQPEDFATYYCQQYHHPSTFGQGTKVEIKRGGGGSGGGGSGGGGSEVQLLESGGGLVQPGGSLRLSCAASGFTFRNHDMGWVRQAPGKGLEWVSAISGSGGSTYYANSVKGRFTISRDNSKNTLYLQMNSLRAEDTAVYYCAEPKPMDTEFDYRSPGTLVTVSSVEGGSGGSGGSGGSGGVDQVTLKESGPGILQPSQTLSLTCSFSGFSLRTSGMGVGWIRQPSGKGLEWLAHIWWDDDKRYNPALKSRLTISKDTSSNQVFLKIASVDTADTATYYCAQINPAWFAYWGQGTLVTVSSGGGGSGGGGSGGGGSDIVLTQSPASLAVSLGQRATISCKASQSVDFDGDSFMNWYQQKPGQPPKLLIYTTSNLESGIPARFSASGSGTDFTLNIHPVEEEDTATYYCQQSNEDPYTFGGGTKLEIKHHHHHH
CD16
  binding result: binds

B6: CD33 BRiDGE (B031) (Fab, V domains shown)
VH: QVQLVQSGAEVKKPGSSVKVSCKASGYTFTDYNMHWVRQAPGQGLEWIGYIYPYNGGTGYNQKFKSKATITADESTNTAYMELSSLRSEDTAVYYCARGRPAMDYWGQGTLVTVSS
VL: DIQMTQSPSSLSASVGDRVTITCRASESVDNYGISFMNWFQQKPGKAPKLLIYAASNQGSGVPSRFSGSGSGTDFTLTISSLQPDDFATYYCQQSKEVPWTFGQGTKVEIKR
notes: 6xHis on both chains; also called CD33 bridging molecule; CD33 Fab
CD33
  binding result: binds

B7: ROR1 bridging molecule derived from ROR1 APC (WO2016016344A1_D10v3) (Fab, V domains shown)
VH: QVQLKESGPGLVAPSQTLSITCTVSGFSLTSYGVHWVRQPPGKGLEWLGVIWAGGFTNYNSALKSRLSISKDNSKSQVLLKMTSLQTDDTAMYYCARRGSSYSMDYWGQGTSVTVSS
VL: EIVLSQSPAITAASLGQKVTITCSASSNVSYIHWYQQRSGTSPRPWIYEISKLASGVPVRFSGSGSGTSYSLTISSMEAEDAAIYYCQQWNYPLITFGSGTKLEIQR
notes: Fab with E200 at the N-terminus of the light chain, 6xHis on both chains; also called B044; ROR-1, clone D10v3, B044-1 LC / B044-2_HC
ROR1
  binding result: binds

B8: OR_BiKE2 OR106 (CD16 x nfP2X7) (bispecific antibody)
chain: DIVLTQSPASLAVSLGQRATISCKASQSVDFDGDSFMNWYQQKPGQPPKLLIYTTSNLESGIPARFSASGSGTDFTLNIHPVEEEDTATYYCQQSNEDPYTFGGGTKLEIKGGGGSGGGGSGGGGSQVTLKESGPGILQPSQTLSLTCSFSGFSLRTSGMGVGWIRQPSGKGLEWLAHIWWDDDKRYNPALKSRLTISKDTSSNQVFLKIASVDTADTATYYCAQINPAWFAYWGQGTLVTVSSVEGGSGGSGGSGGSGGVDEVQLLESGGGLVQPGGSLRLSCAASGFTFRNHDMGWVRQAPGKGLEWVSAISGSGGSTYYANSVKGRFTISRDNSKNTLYLQMNSLRAEDTAVYYCAEPKPMDTEFDYRSPGTLVTVSSGGGGSGGGGSGGGGSDIQMTQSPSSLSASVGDRVTITCRASQYIYDYLNWYQQKPGKAPKLLIYAASYLQSGVPSRFSGSGSGTDFTLTISSLQPEDFATYYCQQYHHPSTFGQGTKVEIKRHHHHHH
notes: 3G8 scFv-linker-BIL03/WTB1 scFv-6xHis
CD16
  binding result: binds

B9: EGFR bridging molecule derived from matuzumab (Fab, V domains shown)
VH: QVQLVQSGAEVKKPGASVKVSCKASGYTFTSHWMHWVRQAPGQGLEWIGEFNPSNGRTNYNEKFKSKATMTVDTSTNTAYMELSSLRSEDTAVYYCASRDYDYDGRYFDYWGQGTLVTVSS
VL: DIQMTQSPSSLSASVGDRVTITCSASSSVTYMYWYQQKPGKAPKLLIYDTSNLASGVPSRFSGSGSGTDYTFTISSLQPEDIATYYCQQWSSHIFTFGQGTKVEIKR
notes: also called B035; EGFR, Matuzumab, B035-1_LC / B035-2_HC
EGFR
  binding result: binds

B10: CD22 bridging molecule derived from m971-L7 (Fab, V domains shown)
VH: QVQLQQSGPGMVKPSQTLSLTCAISGDSVSSNSVAWNWIRQSPSRGLEWLGRTYYRSTWYNDYAVSMKSRITINPDTNKNQFSLQLNSVTPEDTAVYYCAREVTGDLEDAFDIWGQGTMVTVSS
VL: DIQMIQSPSSLSASVGDRVTITCRASQTIWSYLNWYRQRPGEAPNLLIYAASSLQSGVPSRFSGRGSGTDFTLTISSLQAEDFATYYCQQSYSIPQTFGQGTKLEIKR
notes: Fab with E200 at the N-terminus of the light chain, 6xHis on both chains; also called B023; CD22, m971-L7, B023-1 LC / B023-2_Heavy Chain
CD22 [2]
  binding result: binds

B11: CD79B bridging molecule derived from polatuzumab (Fab, V domains shown)
VH: EVQLVESGGGLVQPGGSLRLSCAASGYTFSSYWIEWVRQAPGKGLEWIGEILPGGGDTNYNEIFKGRATFSADTSKNTAYLQMNSLRAEDTAVYYCTRRVPIRLDYWGQGTLVTVSS
VL: DIQLTQSPSSLSASVGDRVTITCKASQSVDYEGDSFLNWYQQKPGKAPKLLIYAASNLESGVPSRFSGSGSGTDFTLTISSLQPEDFATYYCQQSNEDPLTFGQGTKVEIKR
notes: Fab with E200 at the N-terminus of the light chain, 6xHis on both chains; also called B025; CD79B, Polatuzumab, B025-1 LC / B025-2_HC
CD79B
  binding result: binds

B12: CD135 bridging molecule derived from 4G8 (Fab, V domains shown)
VH: QVQLQQPGAELVKPGASLKLSCKSSGYTFTSYWMHWVRQRPGHGLEWIGEIDPSDSYKDYNQKFKDKATLTVDRSSNTAYMHLSSLTSDDSAVYYCARAITTTPFDFWGQGTTLTVSS
VL: DIVLTQSPATLSVTPGDSVSLSCRASQSISNNLHWYQQKSHESPRLLIKYASQSISGIPSRFSGSGSGTDFTLSINSVETEDFGVYFCQQSNTWPYTFGGGTKLEIKR
notes: Fab with E200 at the N-terminus of the light chain, 6xHis on both chains; also called B041; CD135, clone 4G8, B041-1_LC / B041-2_HC
CD135
  binding result: binds

B13: BCMA bridging molecule derived from clone CA8 J9M0 (Fab, V domains shown)
VH: QVQLVQSGAEVKKPGSSVKVSCKGSGYTFTNYWMHWVRQAPGQGLEWIGATYRGHSDTYYNQKFKGRATLTADTSTSTAYMELSSLRSEDTAVYYCTRGAIYDGYDVLDNWGQGTLVTVSS
VL: DIQMTQSPSSLSASVGDRVTITCSASQDISNYLNWYQQKPGKAPKLLIYYTSNLHSGVPSRFSGSGSGTDFTLTISSLQPEDFATYYCQQYRKLPWTFGQGTKLEIKR
notes: Fab with E200 at the N-terminus of the light chain, 6xHis on both chains; also called B039; BCMA, clone CA8 J9M0, B039-1_LC / B039-2_HC
BCMA
  binding result: binds
